What was measured:
murine IL-7 receptor [1] = target: T1, murine IL-7 receptor (mouse (endogenous in IxN/2b), UniProt P16872 21-459); test: radioligand binding
T1 sequence: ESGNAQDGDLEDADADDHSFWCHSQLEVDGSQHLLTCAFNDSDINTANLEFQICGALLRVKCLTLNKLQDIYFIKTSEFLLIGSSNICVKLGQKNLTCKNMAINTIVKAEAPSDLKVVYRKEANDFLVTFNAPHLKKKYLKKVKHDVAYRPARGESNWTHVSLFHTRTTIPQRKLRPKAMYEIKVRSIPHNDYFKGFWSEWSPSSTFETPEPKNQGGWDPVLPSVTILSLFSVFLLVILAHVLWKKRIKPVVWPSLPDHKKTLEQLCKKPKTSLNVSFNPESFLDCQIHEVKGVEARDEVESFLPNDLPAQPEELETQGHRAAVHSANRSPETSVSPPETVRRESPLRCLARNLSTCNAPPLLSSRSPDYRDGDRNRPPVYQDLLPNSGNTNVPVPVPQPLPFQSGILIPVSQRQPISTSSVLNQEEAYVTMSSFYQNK

murine IL-7 receptor [2] = target: T1, murine IL-7 receptor; test: radioligand binding; remark: listed apart in the source

B1: 125I-labeled recombinant murine IL-7 (ligand)
chain: ECHIKDKEGKAYESVLMISIDELDKMTGTDSNCPNNEPNFFRKHVCDDTKEAAFLNRAARKLKQFLKMNISEEFNVHLLTVSQGTQTLVNCTSKEEKNVKEQKKNDACFLKRLLREIKTCWNKILKGSI
modifications: 125I on the single tyrosine residue (amino acid 12), nearly quantitatively radiolabeled
- apparent Ka, high affinity component (murine IL-7 receptor [1]): 1.2e+10 M⁻¹
- apparent Ka, low affinity component (murine IL-7 receptor [2]): 4.8e+08 M⁻¹
